Reference: US20240075137A1

Tests used:
[1] = target: mouse PVRIG on cells (mouse); experiment: FACS titration, D10.G4.1 cells
[2] = target: mouse PVRIG on cells (mouse); experiment: FACS titration, HEK293 mPVRIG over-expressing cells
[3] = target: mouse PVRIG on cells (mouse); experiment: FACS, D10.G4.1 cells vs isotype
[4] = target: mouse PVRIG on cells (mouse); experiment: FACS, HEK293 mPVRIG over-expressing vs empty vector cells, 10 ug/ml
[5] = target: mouse PVRIG-Fc fusion protein (mouse); experiment: blocking of mPVRIG-Fc (029-Fc) binding to mPVRL2 over-expressing cells
[6] = target: mouse PVRIG on cells (mouse); experiment: FACS, NK cells, 10 ug/ml vs isotype

Kd [1]: 1.32 nM
Kd [2]: 0.334 nM
MFIr on D10.G4.1 (Ab/Iso) [3]: 8
MFIr (HEK OX/EV) [4]: 50
% R-L blocking [5]: 95%
IC50 [5]: 3.99 nM
MFIr on NK cells (Ab/Iso) [6]: 2.8
B1: AB-407 (antibody, V domains shown)
VH: QVQLQQSGAELAKPGSSVMISCKASGYTFTNYAVHWIKQTTGQALEWTGYIAPGSGVTKYNEKFKGKATLTVDKSSTTAYMQLSSLTPVDTAVYYCASGTTRFAYWGQGTLVTVSS
VL: DIVLTQSPALAVSLGQRATISCRASQSVSLSSYNLMQWYQQKPGQEPKILIYDASNLPSGIPARFSGSGSGTDFTLTIDPVQADDIATYYCQQSKDDPLTFGSGTKLEIK
